Measurements from patent US20210347913A1 (CRISPR THERAPEUTICS, published 2021).
Residue numbers refer to the chain shown, from its start. Names may count otherwise.

T1: PTK7 on PTK7 positive cell line SaOS-2 (osteosarcoma) (UniProt Q13308 31-1070, limits assumed)
T1 sequence (looked up): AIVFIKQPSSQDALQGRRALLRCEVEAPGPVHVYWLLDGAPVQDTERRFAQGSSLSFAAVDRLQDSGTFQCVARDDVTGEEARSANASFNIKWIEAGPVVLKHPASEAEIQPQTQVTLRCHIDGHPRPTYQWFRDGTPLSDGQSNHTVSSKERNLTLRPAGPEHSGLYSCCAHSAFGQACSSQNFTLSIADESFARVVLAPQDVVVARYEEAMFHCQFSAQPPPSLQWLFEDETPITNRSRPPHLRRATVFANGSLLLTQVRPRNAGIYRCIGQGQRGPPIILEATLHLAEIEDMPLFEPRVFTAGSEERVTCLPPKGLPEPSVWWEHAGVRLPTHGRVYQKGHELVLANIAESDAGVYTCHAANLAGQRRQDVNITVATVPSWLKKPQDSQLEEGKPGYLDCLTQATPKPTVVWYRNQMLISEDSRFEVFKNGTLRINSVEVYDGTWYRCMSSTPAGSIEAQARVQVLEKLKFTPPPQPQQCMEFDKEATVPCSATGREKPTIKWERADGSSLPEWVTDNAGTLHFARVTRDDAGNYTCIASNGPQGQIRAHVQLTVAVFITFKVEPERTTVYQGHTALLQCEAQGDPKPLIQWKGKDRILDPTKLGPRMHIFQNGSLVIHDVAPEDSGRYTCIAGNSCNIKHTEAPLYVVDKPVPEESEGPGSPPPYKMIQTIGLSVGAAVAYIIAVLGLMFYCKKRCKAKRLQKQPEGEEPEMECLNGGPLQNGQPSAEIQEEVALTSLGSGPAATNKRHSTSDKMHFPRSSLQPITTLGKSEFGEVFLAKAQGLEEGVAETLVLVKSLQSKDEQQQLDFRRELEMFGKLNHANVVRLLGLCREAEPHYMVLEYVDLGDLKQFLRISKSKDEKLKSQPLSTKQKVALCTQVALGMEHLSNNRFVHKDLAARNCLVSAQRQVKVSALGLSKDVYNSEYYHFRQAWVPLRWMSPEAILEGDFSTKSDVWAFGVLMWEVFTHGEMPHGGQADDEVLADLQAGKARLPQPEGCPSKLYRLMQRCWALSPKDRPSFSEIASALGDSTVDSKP

T2: recombinant human PTK7.Fc (R and D Systems, catalog #9799-TK) (human, UniProt Q13308 31-704, limits assumed)
T2 construct: Bought reagent; also called soluble recombinant human PTK7.Fc; soluble antigen PTK7; not shown: Fc part of the bought fusion (detected with anti-human Fc)
T2 sequence (looked up): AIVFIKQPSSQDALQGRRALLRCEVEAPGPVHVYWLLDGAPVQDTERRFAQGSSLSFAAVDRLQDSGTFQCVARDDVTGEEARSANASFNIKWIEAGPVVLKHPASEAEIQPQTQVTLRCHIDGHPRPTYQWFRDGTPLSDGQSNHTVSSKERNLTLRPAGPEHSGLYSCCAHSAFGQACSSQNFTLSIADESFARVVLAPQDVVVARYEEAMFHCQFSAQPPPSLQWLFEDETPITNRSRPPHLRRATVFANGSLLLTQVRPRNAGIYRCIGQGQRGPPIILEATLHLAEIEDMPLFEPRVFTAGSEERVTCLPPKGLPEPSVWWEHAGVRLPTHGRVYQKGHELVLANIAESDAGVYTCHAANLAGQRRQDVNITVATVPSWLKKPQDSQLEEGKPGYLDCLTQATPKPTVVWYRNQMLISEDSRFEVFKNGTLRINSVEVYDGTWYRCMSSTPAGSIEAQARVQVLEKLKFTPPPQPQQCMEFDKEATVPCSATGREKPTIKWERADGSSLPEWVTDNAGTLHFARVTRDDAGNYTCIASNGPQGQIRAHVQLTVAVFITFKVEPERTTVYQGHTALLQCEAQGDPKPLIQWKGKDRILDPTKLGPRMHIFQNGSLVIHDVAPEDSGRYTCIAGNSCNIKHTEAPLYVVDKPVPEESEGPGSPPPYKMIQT

B1: mask peptide P1 (peptide)
peptide: EVAPGKRWFYNHVKQVPHLV
notes: Found by phage display (Screen 1)
B2: CTX181.P1 (other)
chain: EVAPGKRWFYNHVKQVPHLVGSSGGSGGSGGSGGGPLGLAGGSSGQVQLVESGGGVVQPGRSLRLSCAASGFTFSSYGMHWVRQAPGKGLEWVAVIWDDGSNKYYVDSVKGRFTISRDNSKNTLYLQMNSLRAEDTAVYYCARDDYYGSGSFNSYYGTDVWGQGTTVTVSSGGGGSGGGGSGGGGSEIVLTQSPATLSLSPGERATLSCRASQSVSIYLAWYQQKPGQAPRLLIYDASNRATGIPARFSGSGSGTDFTLTISSLEPEDFAVYYCQQRSNWPPFTFGPGTKVDIKSAAAFVPVFLPAKPTTTPAPRPPTPAPTIASQPLSLRPEACRPAAGGAVHTRGLDFACDIYIWAPLAGTCGVLLLSLVITLYCNHRNRKRGRKKLLYIFKQPFMRPVQTTQEEDGCSCRFPEEEEGGCELRVKFSRSADAPAYQQGQNQLYNELNLGRREEYDVLDKRRGRDPEMGGKPRRKNPQEGLYNELQKDKMAEAYSEIGMKGERRRGKGHDGLYQGLSTATKDTYDALHMQALPPR
notes: Masked chimeric antigen receptor on the surface of TRAC-/B2M- human T cells; entry without signal peptide; also called masked anti-PTK7 CAR P1
B3: CTX181.M4 (other)
chain: QGCTFPNTTMQRTFCGSSGGSGGSGGSGGGPLGLAGGSSGQVQLVESGGGVVQPGRSLRLSCAASGFTFSSYGMHWVRQAPGKGLEWVAVIWDDGSNKYYVDSVKGRFTISRDNSKNTLYLQMNSLRAEDTAVYYCARDDYYGSGSFNSYYGTDVWGQGTTVTVSSGGGGSGGGGSGGGGSEIVLTQSPATLSLSPGERATLSCRASQSVSIYLAWYQQKPGQAPRLLIYDASNRATGIPARFSGSGSGTDFTLTISSLEPEDFAVYYCQQRSNWPPFTFGPGTKVDIKSAAAFVPVFLPAKPTTTPAPRPPTPAPTIASQPLSLRPEACRPAAGGAVHTRGLDFACDIYIWAPLAGTCGVLLLSLVITLYCNHRNRSKRSRLLHSDYMNMTPRRPGPTRKHYQPYAPPRDFAAYRSRVKFSRSADAPAYQQGQNQLYNELNLGRREEYDVLDKRRGRDPEMGGKPRRKNPQEGLYNELQKDKMAEAYSEIGMKGERRRGKGHDGLYQGLSTATKDTYDALHMQALPPR
notes: Masked chimeric antigen receptor on the surface of TRAC-/B2M- human T cells; entry without signal peptide
B4: CTX181.M10 (other)
chain: QGCYIGLRMVPCFHMGSSGGSGGSGGSGGGPLGLAGGSSGQVQLVESGGGVVQPGRSLRLSCAASGFTFSSYGMHWVRQAPGKGLEWVAVIWDDGSNKYYVDSVKGRFTISRDNSKNTLYLQMNSLRAEDTAVYYCARDDYYGSGSFNSYYGTDVWGQGTTVTVSSGGGGSGGGGSGGGGSEIVLTQSPATLSLSPGERATLSCRASQSVSIYLAWYQQKPGQAPRLLIYDASNRATGIPARFSGSGSGTDFTLTISSLEPEDFAVYYCQQRSNWPPFTFGPGTKVDIKSAAAFVPVFLPAKPTTTPAPRPPTPAPTIASQPLSLRPEACRPAAGGAVHTRGLDFACDIYIWAPLAGTCGVLLLSLVITLYCNHRNRSKRSRLLHSDYMNMTPRRPGPTRKHYQPYAPPRDFAAYRSRVKFSRSADAPAYQQGQNQLYNELNLGRREEYDVLDKRRGRDPEMGGKPRRKNPQEGLYNELQKDKMAEAYSEIGMKGERRRGKGHDGLYQGLSTATKDTYDALHMQALPPR
notes: as for B3
B5: CTX181.M13 (other)
chain: B3 chain with F5Y, N7P, T8R, T9F, M10H, Q11M, R12H, T13W, F14L
notes: as for B3
B6: CTX181.M7 (other)
chain: B3 chain with F5M, N7Y, T8H, T9I, M10H, Q11S, R12I, T13G, F14L
notes: as for B3
B7: CTX181.M11 (other)
chain: B3 chain with F5M, N7S, T8H, T9A, M10V, Q11A, R12S, T13F, F14L
notes: as for B3
B8: CTX181.M6 (other)
chain: QGVCTYPPAHRTRFCGSSGGSGGSGGSGGGPLGLAGGSSGQVQLVESGGGVVQPGRSLRLSCAASGFTFSSYGMHWVRQAPGKGLEWVAVIWDDGSNKYYVDSVKGRFTISRDNSKNTLYLQMNSLRAEDTAVYYCARDDYYGSGSFNSYYGTDVWGQGTTVTVSSGGGGSGGGGSGGGGSEIVLTQSPATLSLSPGERATLSCRASQSVSIYLAWYQQKPGQAPRLLIYDASNRATGIPARFSGSGSGTDFTLTISSLEPEDFAVYYCQQRSNWPPFTFGPGTKVDIKSAAAFVPVFLPAKPTTTPAPRPPTPAPTIASQPLSLRPEACRPAAGGAVHTRGLDFACDIYIWAPLAGTCGVLLLSLVITLYCNHRNRSKRSRLLHSDYMNMTPRRPGPTRKHYQPYAPPRDFAAYRSRVKFSRSADAPAYQQGQNQLYNELNLGRREEYDVLDKRRGRDPEMGGKPRRKNPQEGLYNELQKDKMAEAYSEIGMKGERRRGKGHDGLYQGLSTATKDTYDALHMQALPPR
notes: as for B3
B9: CTX181.M14 (other)
chain: B3 chain with F5H, P6V, N7A, T8Q, T9W, M10A, Q11I, R12K, T13A
notes: as for B3
B10: CTX181.M8 (other)
chain: B8 chain with V3W, Y6I, P8S, A9S, H10M, R11S, T12I, F14L
notes: as for B3

biological target: T3, anti-PTK7 antibody Ab181; assay: phage display selection of peptide binders of Ab181 (Screen 1, X15/X19 library)
T3 construct: Unmasked parent IgG1kappa; also called Ab181 IgG1kappa

B1: binds.

biological target: T1, PTK7 on PTK7 positive cell line SaOS-2 …; assay: cell-based or functional assay

B2 and B3 are within 1.5-fold of each other in “IFNγ (pg/mL) at E:T = 1:0.5” value: 13600 pg/mL for the first, 9550 pg/mL for the second.

Going from B4 to B5, the “IFNγ (pg/mL) at E:T = 1:0.5” value rises from 2110 pg/mL to 4860 pg/mL (2.3-fold).

B6 and B7 are within 1.5-fold of each other in “IFNγ (pg/mL) at E:T = 1:0.5” value: 885 pg/mL for the first, 884 pg/mL for the second.

Going from B8 to B9, the “IFNγ (pg/mL) at E:T = 1:0.5” value rises from 735 pg/mL to 1760 pg/mL (2.4-fold).

With B10 the “IFNγ (pg/mL) at E:T = 1:0.5” value was 400 pg/mL.

Going from B2 to B3, the “IFNγ (pg/mL) at E:T = 1:1” value falls from 20500 pg/mL to 13200 pg/mL (1.6-fold).

First: B4
Second: B5
The “IFNγ (pg/mL) at E:T = 1:1” value of the first is 3.3-fold lower: 1880 pg/mL for the first, 6170 pg/mL for the second.

B6 and B7 are within 1.5-fold of each other in “IFNγ (pg/mL) at E:T = 1:1” value: 830 pg/mL for the first, 887 pg/mL for the second.

Compared with B8, B9 is 2.7-fold higher in “IFNγ (pg/mL) at E:T = 1:1” value: 715 pg/mL for the first, 1930 pg/mL for the second.

In the case of B10, the “IFNγ (pg/mL) at E:T = 1:1” value is reported as 443 pg/mL.

biological target: T1, PTK7 on PTK7 positive cell line SaOS-2 …; assay: cell-based or functional assay; remark: another data set of the same source

Going from B2 to B3, the “% Cell killing at E:T = 1:0.5” value falls from 92.7% to 78.4%.

First: B4
Second: B5
The “% Cell killing at E:T = 1:0.5” value of the first is lower: 32.7% for the first, 68.6% for the second.

First: B6
Second: B7
The “% Cell killing at E:T = 1:0.5” value of the first is higher: 37.5% for the first, 20.1% for the second.

Compared with B8, B9 is higher in “% Cell killing at E:T = 1:0.5” value: 42.4% for the first, 52.8% for the second.

In the case of B10, the “% Cell killing at E:T = 1:0.5” value is reported as 15.4%.

First: B2
Second: B3
The “% Cell killing at E:T = 1:1” value of the first is higher: 79.1% for the first, 54.6% for the second.

Going from B4 to B5, the “% Cell killing at E:T = 1:1” value rises from 25.8% to 41.3%.

Going from B6 to B7, the “% Cell killing at E:T = 1:1” value rises from 10.2% to 12.7%.

First: B8
Second: B9
The “% Cell killing at E:T = 1:1” value of the first is lower: 13.9% for the first, 29.5% for the second.

B10 was tested, and the “% Cell killing at E:T = 1:1” value was 3.9%.

biological target: T2, recombinant human PTK7.Fc (R and D …); assay: flow cytometry, percent of CAR T cells positive for 10 ug/mL PTK7.Fc
Method: In addition to detecting surface CAR expression, the ability of the CAR T cells and masked CAR T cells to detect target antigen was also determined. Live CAR T cells were gated by their forward scatter (FSC) and side scatter (SSC) profiles, and with DAPI dye (Invitrogen, catalog #: D3571). The cells were then stained with 10 μg/mL recombinant human PTK7.Fc (R and D Systems, catalog #9799-TK Lot DHMCO219041) as described above in Example 3, and with mouse anti-human.Fc conjugated to APC (Biolegend cat #409305) as secondary antibody for detection (FIG. 3).

Going from B2 to B3, the “% Antigen detection” value falls from 42.7% to 32.6%.

Compared with B4, B5 is higher in “% Antigen detection” value: 28% for the first, 37.5% for the second.

Going from B6 to B7, the “% Antigen detection” value rises from 28% to 30.3%.

Compared with B8, B9 is higher in “% Antigen detection” value: 14.7% for the first, 36.2% for the second.

B10 was tested, and the “% Antigen detection” value was 20.2%.
